Data on 116 sequences can be found in the supplement of paper PMC10724198.

± gives the standard deviation of the averaged measurements.
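Also: PSI is a weighted mean of sequencing reads over stability bins, variants kept only with over 10 reads, mCherry proximal and sfGFP distal, peptide attached via GGGS linker.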

This data set concerns Saccharomyces cerevisiae. As to the kind of experiment: protein stability index of tFT-peptide fusion (C-terminal peptide) (PSI (0-1 scale)); higher = more stable (slower turnover). The following applies: genetic background: wild type; temperature: 30 C.
IIKRKKLMEKRT yielded a protein stability index of 0.663 ± 0.013.

IINKRKKKKDKG had a protein stability index of 0.644 ± 0.019.

Turning to IISAIAPFIRWD, the protein stability index is 0.69 ± 0.03.

On to IKGHLYDFPPGT, for which the protein stability index amounted to 0.792 ± 0.1.

Regarding IKHKSKKNNCKK, the protein stability index worked out at 0.744 ± 0.052.

For the sequence IKIIKNDQKRIK, the protein stability index came to 0.709 ± 0.061.

Regarding IKKITKTKPNHN, the protein stability index was determined as 0.673 ± 0.053.

The sequence IKKKKEEKKKKK returned a protein stability index of 0.586 ± 0.023.

Take IKKLNTYIKRNV: the protein stability index worked out at 0.586 ± 0.025.

Consider IKKLYIICQQMK, for which the protein stability index was determined as 0.666 ± 0.035.

Sequence IKKNKKKKNERK gave a protein stability index of 0.675 ± 0.025.

The sequence IKQEKPTKLPEP registered a protein stability index of 0.6435 ± 0.0052.

Take IKREATNASEPN: the protein stability index is 0.686 ± 0.057.

For the sequence IKREGRDNEEKK, the protein stability index was 0.703 ± 0.039.

IKTKKKKENKRR registered a protein stability index of 0.723 ± 0.008.

In turn, IKTLLDYESMRS returned a protein stability index of 0.768 ± 0.034.

IKVKRRQLKQEK came in with a protein stability index of 0.779 ± 0.097.

As for ILCPFSGCGAGG, the protein stability index is 0.683 ± 0.022.

ILEGFRHVSPVG registered a protein stability index of 0.717 ± 0.085.

Regarding ILFGSILGVPLL, the protein stability index turned out to be 0.661 ± 0.01.

With ILFSILHLLSYL, the protein stability index worked out at 0.6426 ± 0.0039.

For ILVHFQGVHTVL, the protein stability index was found to be 0.663 ± 0.018.

Sequence IMCPVRDSNIFS yielded a protein stability index of 0.733 ± 0.026.

Turning to INIKKKKKIQHI, the protein stability index turned out to be 0.564 ± 0.016.

With INKRKQKLIKKV, the protein stability index was found to be 0.628 ± 0.0069.

INWGVRGTLSSE: the protein stability index worked out at 0.706 ± 0.04.

Sequence IPLSPLRSPPPR returned a protein stability index of 0.648 ± 0.023.

On to IPRPFRSLPFLP, for which the protein stability index is 0.7307 ± 0.0047.

IPRRMFNIRKKR showed a protein stability index of 0.666 ± 0.036.

In the case of IQAVHYTARVPN, the protein stability index turned out to be 0.664 ± 0.072.

As for IQIGESLYFWFV, the protein stability index came out at 0.654 ± 0.066.

As to IRAGRGPARVVP, the protein stability index amounted to 0.707 ± 0.058.

On to IRLMTTIITYMI, for which the protein stability index was 0.44 ± 0.13.

In turn, IRPNLERKIKVR came in with a protein stability index of 0.6226 ± 0.0014.

IRQPNHSIGPHG registered a protein stability index of 0.719 ± 0.024.

As to IRRHNVELSGYL, the protein stability index came out at 0.641 ± 0.022.

The sequence IRRKLINYIKKG had a protein stability index of 0.619 ± 0.066.

Consider IRRLCGSSRPLP, for which the protein stability index was found to be 0.708 ± 0.037.

With IRSAGEKDRKRE, the protein stability index amounted to 0.696 ± 0.03.

Take IRSVNFNIFVKR: the protein stability index came to 0.748 ± 0.057.

Consider IRSVVLSSCWRG, for which the protein stability index is 0.706 ± 0.0097.

For IRVADLNSSSFC, the protein stability index was found to be 0.888 ± 0.16.

For ISIRKNSNQETM, the protein stability index turned out to be 0.692 ± 0.14.

Turning to ISPRSRSCAYGV, the protein stability index is 0.734 ± 0.073.

Consider ISRDNSQITRNM, for which the protein stability index was 0.68 ± 0.015.

As for ITALSSPVRDKL, the protein stability index was determined as 0.646 ± 0.061.

Consider ITEGGANLEGRF, for which the protein stability index was 0.661 ± 0.029.

For ITGPLAPYLGGF, the protein stability index was determined as 0.688 ± 0.037.

ITIPICTTFHHV displayed a protein stability index of 0.731 ± 0.029.

ITIPISGLQVGV came in with a protein stability index of 0.591 ± 0.027.

On to ITNQVIRLSLSN, for which the protein stability index stood at 0.732 ± 0.083.

In turn, ITRAVLPARLFR yielded a protein stability index of 0.705 ± 0.013.

ITRDFQLWASDL: the protein stability index was determined as 0.708 ± 0.0083.

In turn, ITSHRDSVSRWK returned a protein stability index of 0.707 ± 0.0095.

As to ITSQLWGVPLPY, the protein stability index turned out to be 0.7134 ± 0.0032.

For IVGRGGRGGWGV, the protein stability index came out at 0.685 ± 0.04.

In the case of IVLHLAASPTPP, the protein stability index was 0.65 ± 0.015.

IVLRRRKVTRRI displayed a protein stability index of 0.68 ± 0.043.

On to IVPIVDMMIIRK, for which the protein stability index was found to be 0.653 ± 0.068.

As to IVPPALRSDGRR, the protein stability index came to 0.668 ± 0.035.

In turn, IVSPSYGEGSIR registered a protein stability index of 0.695 ± 0.026.

Sequence IVSVSLYLYHFR came in with a protein stability index of 0.548 ± 0.0059.

IWFRGGPGQVPV returned a protein stability index of 0.683 ± 0.027.

In turn, IWGLSGGKKLLW returned a protein stability index of 0.718 ± 0.043.

As for IWQLRARIQAGW, the protein stability index was 0.617 ± 0.047.

In turn, IWTRAFAPSNRF gave a protein stability index of 0.715 ± 0.02.

In turn, KACVKRVYCILE came in with a protein stability index of 0.58 ± 0.015.

Consider KAEEKARGEDWQ, for which the protein stability index was determined as 0.681 ± 0.05.

As for KAGGGEGRDAWG, the protein stability index worked out at 0.667 ± 0.049.

As to KAKKKRRGTSKN, the protein stability index is 0.703 ± 0.066.

KARMTDQLKSTS displayed a protein stability index of 0.672 ± 0.045.

In turn, KATIRRGGKKEK registered a protein stability index of 0.682 ± 0.014.

Take KCGLQRFREAIY: the protein stability index stood at 0.61 ± 0.0084.

Regarding KCKLNDTETMGK, the protein stability index is 0.693 ± 0.026.

KCLCGVHVRLRA yielded a protein stability index of 0.5901 ± 0.0017.

On to KDDHTLMTKYNA, for which the protein stability index was 0.643 ± 0.025.

Sequence KDEGIRENKPNH came in with a protein stability index of 0.668 ± 0.078.

With KDGMATKCIAYT, the protein stability index was 0.657 ± 0.011.

Sequence KDLEIKKEKRKD returned a protein stability index of 0.666 ± 0.015.

KEARHCAQRKDI: the protein stability index amounted to 0.546 ± 0.062.

With KEKNKIKNREVK, the protein stability index was 0.618 ± 0.052.

KENKKKKQRKLK returned a protein stability index of 0.774 ± 0.067.

With KEQKKKLKKKHG, the protein stability index is 0.594 ± 0.099.

KERKEKKKKKNK yielded a protein stability index of 0.7227 ± 0.0045.

For KESEKRKRENKN, the protein stability index is 0.698 ± 0.025.

Turning to KESKIKDKNSII, the protein stability index was determined as 0.734 ± 0.012.

Take KETLRMKFNSWK: the protein stability index was 0.6764 ± 0.0043.

Regarding KETSERKNKETG, the protein stability index came to 0.624 ± 0.041.

The sequence KFKAYNIKKWKE yielded a protein stability index of 0.702 ± 0.03.

The sequence KFVSQLGQRTRF registered a protein stability index of 0.745 ± 0.05.

KGEGGEGSMGGA showed a protein stability index of 0.733 ± 0.053.

Take KGGCGAGRDGRG: the protein stability index turned out to be 0.731 ± 0.026.

On to KGGFGCVGLPGG, for which the protein stability index was found to be 0.638 ± 0.031.

For the sequence KGHQGGLSEGMI, the protein stability index is 0.6 ± 0.092.

Regarding KGMEWEKGYKRL, the protein stability index came out at 0.838 ± 0.23.

For KGQNLAVTRERE, the protein stability index was 0.7 ± 0.024.

Sequence KGRLRVGAAGCD registered a protein stability index of 0.633 ± 0.011.

For KGYGKTGTLRHD, the protein stability index worked out at 0.646 ± 0.013.

For the sequence KHQNEKKQTNKA, the protein stability index was found to be 0.623 ± 0.034.

KIDQLDHVGLYS yielded a protein stability index of 0.674 ± 0.015.

KIEHEGIKTGGT registered a protein stability index of 0.757 ± 0.16.

Regarding KIFRNKHENDLK, the protein stability index came out at 0.695 ± 0.026.

As for KIHRNGNKKEKD, the protein stability index is 0.7 ± 0.013.

In turn, KIKKKKEQTKKK returned a protein stability index of 0.752 ± 0.15.

Sequence KIKKKKKKNKEH came in with a protein stability index of 0.591 ± 0.028.

KIKRKKSIHDKQ registered a protein stability index of 0.693 ± 0.012.

In turn, KIKRTNKNIKKS gave a protein stability index of 0.672 ± 0.017.

In turn, KIKSEFNMIGKN showed a protein stability index of 0.693 ± 0.091.

For KILNIKCLLANK, the protein stability index is 0.686 ± 0.017.

For the sequence KILRKVIKQKGN, the protein stability index was 0.599 ± 0.041.

Regarding KIRIWWIEEKTI, the protein stability index amounted to 0.6067 ± 0.0023.

KIRRECIGSSVY came in with a protein stability index of 0.687 ± 0.019.

Sequence KISNRNKRTNRK had a protein stability index of 0.689 ± 0.077.

Regarding KITKRTKKTKEN, the protein stability index worked out at 0.67086 ± 0.00056.

Sequence KKDQEKEKKGKE displayed a protein stability index of 0.613 ± 0.015.

On to KKEAKRDKKSGR, for which the protein stability index came out at 0.727 ± 0.12.
